Residue numbers refer to the chain shown, from its start. Numbers in names are those of the source. Each block holds one binder with its values, some of them ahead of it.
Key:
[1] = molecular target: T1, PTPRG, endogenous in H929 multiple myeloma cells (human, UniProt P23470 20-1445); experiment: flow cytometry, IgG1 on cell lines, heatmap of % positive cells
T1 construct: Native protein on H929 cells (flow cytometry, siRNA knockdown) and in H929 lysates (IP/MS); also called phosphatase receptor type γ
T1 sequence (P23470 20-1445 limits assumed): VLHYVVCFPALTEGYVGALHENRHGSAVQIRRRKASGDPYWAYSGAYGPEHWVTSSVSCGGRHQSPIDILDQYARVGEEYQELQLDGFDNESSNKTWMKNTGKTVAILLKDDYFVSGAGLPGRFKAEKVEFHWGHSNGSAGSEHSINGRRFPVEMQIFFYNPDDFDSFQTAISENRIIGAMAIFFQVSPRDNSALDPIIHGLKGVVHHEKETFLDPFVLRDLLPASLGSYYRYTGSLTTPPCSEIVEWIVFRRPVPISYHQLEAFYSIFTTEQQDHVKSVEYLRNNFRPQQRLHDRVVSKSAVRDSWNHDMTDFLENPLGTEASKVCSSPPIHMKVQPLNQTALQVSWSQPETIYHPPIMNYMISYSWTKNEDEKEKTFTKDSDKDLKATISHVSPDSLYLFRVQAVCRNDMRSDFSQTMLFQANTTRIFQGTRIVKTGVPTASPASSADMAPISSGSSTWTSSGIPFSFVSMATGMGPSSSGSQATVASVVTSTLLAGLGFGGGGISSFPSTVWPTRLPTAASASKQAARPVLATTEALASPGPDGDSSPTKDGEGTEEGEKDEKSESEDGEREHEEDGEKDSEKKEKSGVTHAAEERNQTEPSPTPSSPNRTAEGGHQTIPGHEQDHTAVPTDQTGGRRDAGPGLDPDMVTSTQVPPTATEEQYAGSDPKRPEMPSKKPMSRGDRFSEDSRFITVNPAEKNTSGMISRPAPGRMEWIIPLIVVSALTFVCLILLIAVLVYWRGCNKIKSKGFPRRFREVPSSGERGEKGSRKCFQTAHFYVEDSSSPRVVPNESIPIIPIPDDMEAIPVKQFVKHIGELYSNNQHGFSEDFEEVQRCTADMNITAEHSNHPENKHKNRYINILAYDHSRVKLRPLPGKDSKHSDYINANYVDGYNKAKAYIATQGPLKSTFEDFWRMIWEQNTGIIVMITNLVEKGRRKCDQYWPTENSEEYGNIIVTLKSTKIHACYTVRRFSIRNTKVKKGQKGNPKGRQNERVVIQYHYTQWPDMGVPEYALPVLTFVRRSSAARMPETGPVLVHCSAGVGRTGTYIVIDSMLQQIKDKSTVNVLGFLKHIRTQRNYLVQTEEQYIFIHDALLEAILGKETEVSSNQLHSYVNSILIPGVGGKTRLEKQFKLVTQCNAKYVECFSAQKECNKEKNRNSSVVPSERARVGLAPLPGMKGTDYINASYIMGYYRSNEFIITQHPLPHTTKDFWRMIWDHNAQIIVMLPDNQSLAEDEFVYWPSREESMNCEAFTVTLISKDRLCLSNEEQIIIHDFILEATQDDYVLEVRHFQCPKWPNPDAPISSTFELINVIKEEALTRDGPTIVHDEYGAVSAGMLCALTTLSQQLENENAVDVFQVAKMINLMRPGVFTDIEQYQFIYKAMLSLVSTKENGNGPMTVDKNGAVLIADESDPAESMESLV

[2] = molecular target: T2, PTPRG on U266 cells (human, UniProt P23470); experiment: as above
T2 construct: endogenous on U266 multiple myeloma cells; also called HW-1 target on U266
T2 sequence (P23470 20-1445 limits assumed): as above

[3] = molecular target: T1, PTPRG, endogenous in H929 multiple …; experiment: flow cytometry, H929 + GARS siRNA; None 0.2
[4] = molecular target: T1, PTPRG, endogenous in H929 multiple …; experiment: flow cytometry, H929 + CDH18 siRNA; None 443
[5] = molecular target: T1, PTPRG, endogenous in H929 multiple …; experiment: flow cytometry, H929 + GARS siRNA; None 452
[6] = molecular target: T3, ICAM1, endogenous in H929 multiple myeloma cells (human, UniProt P05362 28-532); experiment: flow cytometry, H929 + CDH18 siRNA; None 0.19
T3 construct: Native protein on H929 cells (flow cytometry, siRNA knockdown) and in H929 lysates (IP/MS); also called CD54
T3 sequence (P05362 28-532 limits assumed): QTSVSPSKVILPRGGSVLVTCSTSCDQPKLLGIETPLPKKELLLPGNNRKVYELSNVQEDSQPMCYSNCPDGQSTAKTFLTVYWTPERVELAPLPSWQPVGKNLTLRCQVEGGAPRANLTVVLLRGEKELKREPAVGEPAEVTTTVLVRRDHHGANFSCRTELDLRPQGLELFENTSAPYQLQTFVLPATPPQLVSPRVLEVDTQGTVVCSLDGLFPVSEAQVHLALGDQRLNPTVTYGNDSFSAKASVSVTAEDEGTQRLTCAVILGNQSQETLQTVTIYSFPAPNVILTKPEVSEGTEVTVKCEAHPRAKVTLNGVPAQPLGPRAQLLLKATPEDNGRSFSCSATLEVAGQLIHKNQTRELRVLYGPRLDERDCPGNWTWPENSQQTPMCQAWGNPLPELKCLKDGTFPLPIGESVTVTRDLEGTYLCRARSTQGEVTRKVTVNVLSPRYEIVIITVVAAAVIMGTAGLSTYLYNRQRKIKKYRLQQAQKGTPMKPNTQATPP

[7] = molecular target: T3, ICAM1, endogenous in H929 multiple …; experiment: flow cytometry, H929 + GARS siRNA; None 0.2
[8] = molecular target: T3, ICAM1, endogenous in H929 multiple …; experiment: flow cytometry, H929 + CDH18 siRNA; None 443
[9] = molecular target: T3, ICAM1, endogenous in H929 multiple …; experiment: flow cytometry, H929 + GARS siRNA; None 452
[10] = molecular target: T4, CADM1, endogenous in H929 multiple myeloma cells (human, UniProt Q9BY67 45-442); experiment: flow cytometry, H929 + PTPRG siRNA; None 490
T4 construct: Native protein on H929 cells (flow cytometry, siRNA knockdown) and in H929 lysates (IP/MS); RPMI-8226 cells were used for sorting with HW-97; also called IGSF4A
T4 sequence: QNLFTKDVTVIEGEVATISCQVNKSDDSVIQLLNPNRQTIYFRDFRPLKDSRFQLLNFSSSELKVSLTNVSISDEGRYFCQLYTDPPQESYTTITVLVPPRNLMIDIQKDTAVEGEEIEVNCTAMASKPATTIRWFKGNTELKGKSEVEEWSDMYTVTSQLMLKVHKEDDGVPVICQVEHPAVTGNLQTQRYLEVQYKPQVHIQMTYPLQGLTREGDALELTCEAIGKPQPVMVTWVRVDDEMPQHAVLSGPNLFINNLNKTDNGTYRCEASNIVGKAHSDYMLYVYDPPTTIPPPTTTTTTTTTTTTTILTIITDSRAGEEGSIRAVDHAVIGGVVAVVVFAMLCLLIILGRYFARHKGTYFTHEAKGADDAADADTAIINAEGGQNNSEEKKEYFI

[11] = molecular target: T4, CADM1, endogenous in H929 multiple …; experiment: flow cytometry, H929 + GARS siRNA; None 0.2
[12] = molecular target: T4, CADM1, endogenous in H929 multiple …; experiment: flow cytometry, H929 + CDH18 siRNA; None 443
[13] = molecular target: T4, CADM1, endogenous in H929 multiple …; experiment: flow cytometry, H929 + GARS siRNA; None 452
[14] = molecular target: T5, GARS-His (Sino Biological) (human, UniProt P41250 37-739, limits assumed); experiment: ELISA, coated recombinant GARS-His, anti-human Fab-peroxidase detection
T5 construct: Bought; also called GARS1; glycyl-tRNA synthetase; not shown: His tag of the bought protein
T5 sequence: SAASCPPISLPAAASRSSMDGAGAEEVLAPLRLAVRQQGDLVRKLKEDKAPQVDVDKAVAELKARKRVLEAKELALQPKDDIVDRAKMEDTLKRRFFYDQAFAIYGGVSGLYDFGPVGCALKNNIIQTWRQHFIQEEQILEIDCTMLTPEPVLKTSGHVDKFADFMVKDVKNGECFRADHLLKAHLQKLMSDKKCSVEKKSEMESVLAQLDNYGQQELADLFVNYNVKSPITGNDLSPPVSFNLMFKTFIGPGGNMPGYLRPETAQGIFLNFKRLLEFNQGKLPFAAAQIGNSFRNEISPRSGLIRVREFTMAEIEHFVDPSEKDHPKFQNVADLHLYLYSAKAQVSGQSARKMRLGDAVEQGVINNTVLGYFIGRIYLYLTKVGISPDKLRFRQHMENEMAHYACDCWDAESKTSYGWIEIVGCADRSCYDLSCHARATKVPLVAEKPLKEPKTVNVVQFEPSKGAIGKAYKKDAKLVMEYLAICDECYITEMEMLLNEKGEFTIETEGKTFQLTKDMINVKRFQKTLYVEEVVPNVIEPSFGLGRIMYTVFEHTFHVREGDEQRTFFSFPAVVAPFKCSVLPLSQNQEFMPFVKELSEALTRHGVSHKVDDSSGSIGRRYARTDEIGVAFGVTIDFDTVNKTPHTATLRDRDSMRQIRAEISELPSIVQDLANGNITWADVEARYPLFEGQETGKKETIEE
Protocol: ELISA ELISA was conducted as described previously. Briefly, 50-150 ng of antigen was coated overnight in half-area 96-well plates at 4° C., blocked with 3% BSA at 37° C. for 1 h, and 150 ng of chimeric rabbit/human IgG1 was added, incubating for 2 h at 37° C. […] After incubating at 37° C. for 15 min-1 h (depending on intensity of controls), data were acquired using a SpectraMax M5 plate reader (Molecular Devices).

B2: HW-42 chimeric rabbit-human IgG1 LA/LA/PG (antibody, V domains shown)
VH: QSVKESEGGLFKPADTLTLTCTVSGFSLSSNEISWVRQAPGEGLEYIGIIDTGGRAYYAVWARSRSTITRNTNLNTVTLKMTSLTAADTATYFCARGGVDTEWYAFSSWGPGTLVTVPS
VL: SFVLTQPASVQVNLGQTVSLTCTADTLSRRYASWYQQKPGQAPVLLIFRDTSRPSGVPDRFSGSSSGDTATLTISGAQAGDEADYYCATSDGSGSNYQYVFGGGTQLTVTG
notes: Fc-silenced (L234A/L235A/P329G) IgG1, lambda; Alexa Fluor 647-labeled in single-step flow cytometry; Cluster C-1
Cells stained (%) [3]: 98.8%
mAb binding (MFI) [4]: 9870
mAb binding (MFI) [5]: 9850

B3: HW-113 chimeric rabbit-human IgG1 LA/LA/PG (antibody, V domains shown)
VH: QKQLVESGGGLVQPGGSLTLTCTVSGFSLNKYYMGWFRQAPGKGLEWIGVISRSGDTYYSSWAKGRFTISKASTTVDLRITSPTTEDTATYFCARDASSPGFHGDRLDLWGQGTLVTVSS
VL: B2 VL with R30S, F48Y, D68N, S93I, Q98L, Y99W
notes: Fc-silenced (L234A/L235A/P329G) IgG1, lambda; Alexa Fluor 647-labeled in single-step flow cytometry
Cells stained (%) [6]: 98.8%
Cells stained (%) [7]: 99.8%
mAb binding (MFI) [8]: 18200
mAb binding (MFI) [9]: 43200

B6: HW-8 chimeric rabbit-human IgG1 LA/LA/PG (antibody, V domains shown)
VH: QSLEESGGRLVTPGTPLTLTCTVSGFSLSSYAMSWVRQAPGKGLEWIGAISTGGSTTYASWAKGRFTISKTSSTTVDLKMTSLTTEDTATYFCVRHFRLWGPGTLVTISS
VL: QVLTQTPSSVSAAVGGTVTIKCQASQSIGSALAWFQQKPGQRPKLLIYRASNLASGVPSRFKGSGSGTEFALTISGVQREDAATYYCLGGAAAVWAFGAGTNVEIKR
notes: Fc-silenced (L234A/L235A/P329G) IgG1, kappa; Alexa Fluor 647-labeled in single-step flow cytometry; Cluster C-45
binding result [14]: no binding (tested: 150 ng of IgG1 per well)

Other lines, results leading:

binding result [1]: no binding
binding result [2]: no binding
B1: TH9-0022 (antibody, human IgG1, kappa, L234A L235A, V domains shown)
VH: QSLEESGGRLVTPGTPLTLTCTVSGFSLSSYAMNWVRQAPGKGLEWIGIINSYGSTYYASWAKGRFTISKTSTTVDLKITSPTTEDTATYFCARVTYDSYGYGYAPYGMDLWGPGTLVTVSS
VL: LVMTQTPSSTSNAVGGTVTIKCQASQSIGNVLAWYQQKPGQPPKLLIYAASTLASGVPSRVGGSRSGTEYTLTISGVQREDAATYYCLGSDSDSDIAFGGGTELEILR
notes: also called TH9-022; negative control IgG1

mAb binding (MFI) [10]: 5900
B4: HW-101 chimeric rabbit-human IgG1 LA/LA/PG (antibody, V domains shown)
VH: QEQLVESGGRLVTPGTPLTLTCKASGFSLGKYDMSWVRQAPGKGLEWIGTIYAGSGSTWYASWAKGRFTISKTSTTVDLKMTSLTTEDTATYFCARDFLGVNSIWGPGTLVTISS
VL: B2 VL with R30S, G40D, F48H, S65N, D68N, Y97F, Q98H, Y99F
notes: Fc-silenced (L234A/L235A/P329G) IgG1, lambda; Alexa Fluor 647-labeled in single-step flow cytometry; Cluster C-97

mAb binding (MFI) [10]: 7040
Cells stained (%) [11]: 99.9%
mAb binding (MFI) [12]: 17900
mAb binding (MFI) [13]: 22100
B5: HW-97 chimeric rabbit-human IgG1 LA/LA/PG (antibody, V domains shown)
VH: QKQLVESGGRLVTPGTPLTLTCTVTGIDLSSHGMSWVRQAPGKGLEWIGVIYPSGSTWYASWARGRFTISKTSTTVDLKMTSLTTEDTATHFCARGDVGGADNNIWGPGTLVTVSS
VL: B2 VL with N13D, D25E, R30S, F48Y, D68N, N96S
notes: Fc-silenced (L234A/L235A/P329G) IgG1, lambda; Alexa Fluor 647-labeled in single-step flow cytometry; Prototype of cluster C-97
